Target: human GLP-1 receptor (human) (UniProt P43220)
Experiment: cell-based or functional assay

human GLP-1 receptor (human), sequence (P43220 24-463): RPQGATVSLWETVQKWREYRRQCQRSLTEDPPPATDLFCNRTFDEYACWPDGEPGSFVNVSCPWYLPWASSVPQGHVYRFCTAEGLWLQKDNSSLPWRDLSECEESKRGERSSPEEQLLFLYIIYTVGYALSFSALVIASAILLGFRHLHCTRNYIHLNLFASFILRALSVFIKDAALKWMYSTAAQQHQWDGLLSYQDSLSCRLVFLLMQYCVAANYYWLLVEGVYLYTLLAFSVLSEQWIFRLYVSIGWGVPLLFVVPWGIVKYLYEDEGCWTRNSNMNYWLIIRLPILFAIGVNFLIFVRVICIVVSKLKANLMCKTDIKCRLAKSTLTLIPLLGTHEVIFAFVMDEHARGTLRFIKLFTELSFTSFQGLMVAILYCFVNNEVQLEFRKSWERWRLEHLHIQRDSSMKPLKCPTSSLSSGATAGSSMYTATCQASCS
Gly^8-Glu^22-Gly^36-GLP-1(7-37)-2L-IgG4(S228P, F234A, L235A) (Fc fusion), sequence (main): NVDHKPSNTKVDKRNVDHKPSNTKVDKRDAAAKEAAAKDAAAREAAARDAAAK
Gly^8-Glu^22-GLP-1(7-37)-1.5L-IgG4(S228P, F234A, L235A) (Fc fusion), sequence (main): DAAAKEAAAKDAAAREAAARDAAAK

Q: “Gly^8-Glu^22-GLP-1(7-37)-1.5L-IgG4(S228P, F234A, L235A) (Fc fusion)” was tested. Which Activity (from EC50, relative to Val^8-GLP-1(7-37)OH); CRE-BLAM (beta-lactamase) reporter in HEK-293 cells expressing the human GLP-1 receptor did it give?
A: 314%

Q: And the Activity (from EC50, relative to Val^8-GLP-1(7-37)OH, corrected for the 2-fold molarity of dimers); CRE-Luciferase reporter in HEK-293 cells stably expressing the human GLP-1 receptor?
A: 595%

Q: For “Gly^8-Glu^22-Gly^36-GLP-1(7-37)-2L-IgG4(S228P, F234A, L235A) (Fc fusion)”, which Activity (from EC50, relative to Val^8-GLP-1(7-37)OH); CRE-BLAM (beta-lactamase) reporter in HEK-293 cells expressing the human GLP-1 receptor is on record?
A: 441%

Q: What about the Activity (from EC50, relative to Val^8-GLP-1(7-37)OH, corrected for the 2-fold molarity of dimers); CRE-Luciferase reporter in HEK-293 cells stably expressing the human GLP-1 receptor of the same substance?
A: 398%

Q: Which Activity (from EC50, relative to Val^8-GLP-1(7-37)OH); CRE-BLAM (beta-lactamase) reporter in HEK-293 cells expressing the human GLP-1 receptor does the source give for “Gly^8-Glu^22-GLP-1(7-37)-1L-IgG4(S228P, F234A, L235A) (Fc fusion)” here?
A: 468%

Q: What about the Activity (from EC50, relative to Val^8-GLP-1(7-37)OH, corrected for the 2-fold molarity of dimers); CRE-Luciferase reporter in HEK-293 cells stably expressing the human GLP-1 receptor of the same substance?
A: 1120%

Q: With “Gly^8-Glu^22-GLP-1(7-37)-2L-IgG4(S228P, F234A, L235A) (Fc fusion)” as the substance, how does the Activity (from EC50, relative to Val^8-GLP-1(7-37)OH); CRE-BLAM (beta-lactamase) reporter in HEK-293 cells expressing the human GLP-1 receptor read?
A: 301%

Q: And the Activity (from EC50, relative to Val^8-GLP-1(7-37)OH, corrected for the 2-fold molarity of dimers); CRE-Luciferase reporter in HEK-293 cells stably expressing the human GLP-1 receptor?
A: 535%

Q: For “Gly^8-Glu^22-Gly^36-GLP-1(7-37)-1L-IgG4(S228P, F234A, L235A) (Fc fusion)”, which Activity (from EC50, relative to Val^8-GLP-1(7-37)OH, corrected for the 2-fold molarity of dimers); CRE-Luciferase reporter in HEK-293 cells stably expressing the human GLP-1 receptor is on record?
A: 417%
